{"source": "patent US20230125500A1", "about": "“ANGIOSTATIN NEUTRALIZING PEPTIDES DERIVED FROM ATP SYNTHASE ALPHA SUBUNIT” (The Governors of the University of Alberta, priority 2021, published 2023)", "key": {"[1]": {"target": "T1, angiostatin kringles 1-4 (Homo sapiens, UniProt P00747)", "T1 construct": "the resulting peptides incubated with purified angiostatin kringles 1-4", "T1 sequence (P00747 79-466 limits assumed)": "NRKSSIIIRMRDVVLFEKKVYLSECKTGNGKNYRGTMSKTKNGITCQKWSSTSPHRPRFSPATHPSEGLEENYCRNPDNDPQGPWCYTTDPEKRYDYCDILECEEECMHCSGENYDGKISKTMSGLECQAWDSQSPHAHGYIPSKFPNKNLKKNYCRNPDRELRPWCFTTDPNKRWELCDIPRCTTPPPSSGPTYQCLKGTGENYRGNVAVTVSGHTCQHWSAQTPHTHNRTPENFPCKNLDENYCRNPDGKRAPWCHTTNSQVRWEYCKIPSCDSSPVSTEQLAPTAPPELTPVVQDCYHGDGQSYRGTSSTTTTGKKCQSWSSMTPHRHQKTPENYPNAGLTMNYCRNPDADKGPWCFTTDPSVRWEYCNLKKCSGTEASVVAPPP", "experiment": "Immunoprecipitation of angiostatin K1-4 after incubation with trypsinized ATP synthase subunit α, mass spectrometry of bound peptides", "format": "binding", "conditions": "for abundance based on peptide spectral matches (PSMs): angiostatin-bound peptides after immunoprecipitation; for binding to angiostatin (immunoprecipitation, mass spectrometry): peptides from trypsin digest of recombinant F1F0 ATP synthase subunit α incubated with purified angiostatin kringles 1-4", "method": "Trypsin digestion of ATP synthase subunit α. Recombinant F1F0 ATP synthase subunit α was digested with trypsin, and following heat-inactivation of trypsin the resulting peptides incubated with purified angiostatin kringles 1-4. Subsequently, the angiostatin was immunoprecipitated and submitted for mass spectroscopy analysis to identify any potential bound peptides of subunit α."}, "[2]": {"tested_on": "eNOS protein expression", "experiment": "Immunoblot of eNOS in angiostatin-treated hypoxic HMVEC-C", "format": "cell-based, Human", "conditions": "48 hours hypoxic conditions, peptides tested with angiostatin", "method": "(§1) Cell culture and hypoxia. Cardiac-derived Human microvascular endothelial cells from (HMVEC-C) were obtained from Lonza (Walkersville, Md., USA) and cultured in a humidified atmosphere at 37° C. and 5% CO2 in EGM-2 MV. Depending on the donor, the primary endothelial cells were serum starved for 4-16 h in EBM-2 and 0.5% FBS prior to exposure to hypoxic conditions. The time of serum starvation prior to treatment was titrated to induce approximately 40% apoptosis following treatment under normoxic conditions. Hypoxia was induced by exposing endothelial cells for 48 h under serum-starved conditions in a Billups-Rothenberg chamber continuously gassed with 95% N2-5% CO2.\n(§2) Immunoblots. HMVEC-L lysates were subjected to 8% sodium dodecyl sulfate-polyacrylamide gel electrophoresis Blots were blocked overnight in TTBS and 5% non-fat milk and then cut at the 50 KDa across the membrane. Subsequently the >50 KDa upper membrane was incubated with either rabbit anti-human MMP-14 (MT1-MMP) (1 μg/ml) (Millipore) (Etobicoke, ONT, Canada), or mouse anti-eNOS (1:1000) (Abcam) (Toronto, ONT, Canada) for 2 h. Anti-mouse (1:10,000), or anti-rabbit (1:5000) horseradish peroxidase-conjugated antibodies were used as the secondary antibodies (Sigma, Oakville, ON, Canada). […] Blot bands were quantified using ImageJ software (Bio-Rad, Mississauga, ON, Canada) and expressed as arbitrary units of density per β-actin."}, "[3]": {"tested_on": "MT1-MMP protein expression", "experiment": "Immunoblot of MT1-MMP (MMP-14) in angiostatin-treated hypoxic HMVEC-C", "format": "cell-based, Human", "conditions": "48 hours hypoxic conditions, peptides tested with angiostatin", "method": "as §1, §2"}, "[4]": {"tested_on": "MMP-2 protein expression", "experiment": "Gelatin zymography of MMP-2 in HMVEC-C lysates", "format": "cell-based, Human", "conditions": "48 hours hypoxic conditions, peptides tested with angiostatin", "method": "as §1\nGelatin zymography. Gelatin zymography was used to assess MMP-2 levels within HMVEC-C lysates. Zymography was performed using 8% SDS-PAGE with copolymerized gelatin (2 mg/ml). After electrophoresis, gels were washed 3× for 20 min in 2% Triton X-100. Next, gels were washed 2· for 20 min in developing buffer (50 mM Tris-HCl pH 7.6, 150 mM NaCl, 5 mM CaCl2), and 0.05% NaN3) and then incubated in developing buffer at 37° C. overnight. Gels were stained with 0.05% Coomassie Brilliant Blue and then destained in a 4% ethanol and 8% acetic acid solution. Gelatinolytic activity was detected as transparent bands against a blue background of Coomassie-stained gelatin. […]"}, "[5]": {"tested_on": "fibrinolysis", "experiment": "In vitro fibrinolysis assay in citrated human plasma", "format": "biochemical", "conditions": "recalcified human plasma, thrombin + tPA 1 μg/ml, 2 hours 37° C.; combined peptides each 1 μM, aprotinin 10 μM", "method": "Fibrinolysis Assays. Citrated human plasma (platelet-free) was recalcified to a final free Ca^2+ concentration of 2.5 mM. After recalcification, plasma was incubated with a peptide 1, 2, 3, or with combined a peptides 1-3 (each 1 μM), or with negative control 8 peptide (3 μM) or with aprotinin (10 μM) as positive control for inhibiting fibrinolysis. To initiate clotting ice-cold thrombin (0.3 U/ml) was added to each well, while to initiate fibrinolysis human tissue plasminogen activator (1 μg/ml; Sigma) was added. After 2 hours incubation at 37° C. the absorbance at 405 nm was measured using a Bio-Rad iMark microplate reader and the results were expressed as percent fibrinolysis."}, "[6]": {"tested_on": "HMVEC-C", "experiment": "Endothelial cell migration assay under hypoxia", "format": "cell-based, Human", "conditions": "hypoxia 48 hours, VEGF 10 ng/ml chemoattractant, angiostatin 600 nM; combined peptides 1 μM each", "method": "Migration assays. 24-well plate inserts with […] pores (Falcon Corning, Tewksbury, Mass., USA) were coated with 1 mg/ml gelatin and incubated at 37° C. for 2 hours to allow gelatin to solidify. Excess gelatin was aspirated and inserts were left to dry overnight under UV light, then gently washed once with 100μl of PBS. Once approximately 80% confluent, HMVEC-C were serum starved for 8 hours in 0.5% FBS in EBM-2. Cells were trypsinized and seeded into the top chamber of the gelatin-coated inserts at a concentration of 25 000 cells/insert. Recombinant VEGF (10 ng/ml) in 0.5% FBS in EBM-2 was added to the corresponding bottom chambers to serve as a chemoattractant. HMVEC-C were treated with PBS control, angiostatin (600 nM), angiostatin (600 nM)+a peptide 1 through 3 (3 μM), angiostatin (600 nM)+negative-control 6 peptide (3 μM), and angiostatin (600 nM)+combined a peptide 1-3 (1 μM each). The system was incubated in hypoxia (95% N2, 5% CO2) for 48 hours. After incubation, the top layer of each insert was scraped gently using a Q-tip to remove the non-migrated cells. Migrated cells at the bottom of the insert were fixed in 4% formaldehyde in PBS for five minutes, followed by staining using Diffquik stain (Siemens Healthcare Diagnostics Inc., Newark, Del., USA). […] Cells were counted using ImageJ software, and expressed as migration percent of PBS control."}}, "data": [{"molecule": "AVDSLVPIGR [Alpha peptide 3]", "values": [{"measurement": "abundance based on peptide spectral matches (PSMs)", "setting": "[1]", "result": "medium abundance"}, {"measurement": "binding to angiostatin (immunoprecipitation, mass spectrometry)", "setting": "[1]", "result": "bound to angiostatin"}]}, {"molecule": "TGTAEMSSILEER [Alpha peptide 1]", "values": [{"measurement": "abundance based on peptide spectral matches (PSMs)", "setting": "[1]", "result": "high abundance"}, {"measurement": "binding to angiostatin (immunoprecipitation, mass spectrometry)", "setting": "[1]", "result": "bound to angiostatin"}]}, {"molecule": "TSIAIDTIINQK [Alpha peptide 2]", "values": [{"measurement": "abundance based on peptide spectral matches (PSMs)", "setting": "[1]", "result": "medium abundance"}, {"measurement": "binding to angiostatin (immunoprecipitation, mass spectrometry)", "setting": "[1]", "result": "bound to angiostatin"}]}, {"molecule": "VPTLQVLRPGLVV [delta peptide, reference compound]", "values": [{"measurement": "eNOS levels (immunoblot)", "setting": "[2]", "result": "failed to significantly increase"}, {"measurement": "MT1-MMP levels (immunoblot)", "setting": "[3]", "result": "failed to significantly increase"}, {"measurement": "MMP-2 levels (gelatin zymography)", "setting": "[4]", "result": "failed to significantly increase"}]}, {"molecule": "aprotinin", "values": [{"measurement": "inhibition of fibrinolysis", "setting": "[5]", "result": "fibrinolysis inhibitor"}]}, {"molecule": "angiostatin (protein) YLSECKTGNGKNYRGTMSKTKNGITCQKWSSTSPHRPRFSPATHPSEGLEENYCRNPDNDPQGPWCYTTDPEKRYDYCDILECEEECMHCSGENYDGKISKTMSGLECQAWDSQSPHAHGYIPSKFPNKNLKKNYCRNPDRELRPWCFTTDPNKRWELCDIPRCTTPPPSSGPTYQCLKGTGENYRGNVAVTVSGHTCQHWSAQTPHTHNRTPENFPCKNLDENYCRNPDGKRAPWCHTTNSQVRWEYCKIPSCDSSPVSTEQLAPTAPPELTPVVQDCYHGDGQSYRGTSSTTTTGKKCQSWSSMTPHRHQKTPENYPNAGLTMNYCRNPDADKGPWCFTTDPSVRWEYCNLKKCSGTEA", "values": [{"measurement": "eNOS levels (immunoblot)", "setting": "[2]", "result": "significant reduction"}, {"measurement": "MT1-MMP levels (immunoblot)", "setting": "[3]", "result": "significant reduction"}, {"measurement": "MMP-2 levels (gelatin zymography)", "setting": "[4]", "result": "significant reduction"}, {"measurement": "HMVEC-C migration", "setting": "[6]", "result": "decreased"}]}]}
